{
  "source": "IntAct's records for PubMed 27857056",
  "parents": {"B1": {"name": "UDP-glucuronosyltransferase 1A9 (Homo sapiens), O60656-1 (parent)", "chain": "MACTGWTSPLPLCVCLLLTCGFAEAGKLLVVPMDGSHWFTMRSVVEKLILRGHEVVVVMPEVSWQLGRSLNCTVKTYSTSYTLEDLDREFKAFAHAQWKAQVRSIYSLLMGSYNDIFDLFFSNCRSLFKDKKLVEYLKESSFDAVFLDPFDNCGLIVAKYFSLPSVVFARGILCHYLEEGAQCPAPLSYVPRILLGFSDAMTFKERVRNHIMHLEEHLLCHRFFKNALEIASEILQTPVTEYDLYSHTSIWLLRTDFVLDYPKPVMPNMIFIGGINCHQGKPLPMEFEAYINASGEHGIVVFSLGSMVSEIPEKKAMAIADALGKIPQTVLWRYTGTRPSNLANNTILVKWLPQNDLLGHPMTRAFITHAGSHGVYESICNGVPMVMMPLFGDQMDNAKRMETKGAGVTLNVLEMTSEDLENALKAVINDKSYKENIMRLSSLHKDRPVEPLDLAVFWVEFVMRHKGAPHLRPAAHDLTWYQYHSLDVIGFLLAVVLTVAFITFKCCAYGYRKCLGKKGRVKKAHKSKTH", "partner": "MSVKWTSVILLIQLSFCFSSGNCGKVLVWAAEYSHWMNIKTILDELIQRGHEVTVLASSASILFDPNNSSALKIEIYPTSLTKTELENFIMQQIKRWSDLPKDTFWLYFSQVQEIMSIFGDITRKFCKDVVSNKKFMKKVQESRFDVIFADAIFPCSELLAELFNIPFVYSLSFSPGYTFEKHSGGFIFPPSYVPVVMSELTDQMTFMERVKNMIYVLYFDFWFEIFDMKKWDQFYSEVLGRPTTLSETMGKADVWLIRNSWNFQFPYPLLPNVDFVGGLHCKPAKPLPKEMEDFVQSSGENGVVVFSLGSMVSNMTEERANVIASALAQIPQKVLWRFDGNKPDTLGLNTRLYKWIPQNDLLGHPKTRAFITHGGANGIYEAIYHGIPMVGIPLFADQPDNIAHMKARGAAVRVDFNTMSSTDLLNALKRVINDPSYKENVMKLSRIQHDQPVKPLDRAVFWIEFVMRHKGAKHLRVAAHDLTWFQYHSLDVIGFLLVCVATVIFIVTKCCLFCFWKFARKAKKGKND"}, "B2": {"name": "UDP-glucuronosyltransferase 2B7 (Homo sapiens), P16662 (parent)", "chain": "B1 partner", "partner": "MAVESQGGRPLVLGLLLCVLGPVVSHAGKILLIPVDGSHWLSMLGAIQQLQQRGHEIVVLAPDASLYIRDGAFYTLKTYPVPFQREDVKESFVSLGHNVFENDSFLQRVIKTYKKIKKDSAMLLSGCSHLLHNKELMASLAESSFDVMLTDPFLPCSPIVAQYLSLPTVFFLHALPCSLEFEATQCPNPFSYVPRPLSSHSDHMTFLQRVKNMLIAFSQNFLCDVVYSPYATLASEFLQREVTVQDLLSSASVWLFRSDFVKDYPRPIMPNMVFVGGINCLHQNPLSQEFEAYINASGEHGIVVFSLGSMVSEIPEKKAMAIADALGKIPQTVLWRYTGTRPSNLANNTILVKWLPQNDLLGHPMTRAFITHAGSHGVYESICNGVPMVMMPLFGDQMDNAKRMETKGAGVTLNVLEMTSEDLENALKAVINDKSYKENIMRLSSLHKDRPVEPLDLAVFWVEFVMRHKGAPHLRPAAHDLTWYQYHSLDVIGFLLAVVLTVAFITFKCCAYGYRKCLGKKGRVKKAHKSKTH"}},
  "data": [
    {"variants_of": "B1", "conditions": "with ud2b7_human UGT2B7, P16662", "values": [
      {"variant": "MACTGWTSPLPLCVCLLLTCGFAEAGKLLVVPMDGSHWFTMRSVVEKLILRGHEVVVVMPEVSWQLGRSLNCTVKTYSTSYTLEDLDREFKAFAHAQWKAQVRSIYSLLMGSYNDIFDLFFSNCRSLFKDKKLVEYLKESSFDAVFLDPFDNCGLIVAKYFSLPSVVFARGILCHYLEEGAQCPAPLSYVPRILLGFSDAMTFKERVRNHIMHLEEHLLCHRFFKNALEIASEILQTPVTEYDLYSHTSIWLLRTNFVLDYPKPVMPNMIFIGGINCHQGKPLPMEFEAYINASGEHGIVVFSLGSMVSEIPEKKAMAIADALGKIPQTVLWRYTGTRPSNLANNTILVKWLPQNDLLGHPMTRAFITHAGSHGVYESICNGVPMVMMPLFGDQMDNAKRMETKGAGVTLNVLEMTSEDLENALKAVINDKSYKENIMRLSSLHKDRPVEPLDLAVFWVEFVMRHKGAPHLRPAAHDLTWYQYHSLDVIGFLLAVVLTVAFITFKCCAYGYRKCLGKKGRVKKAHKSKTH", "note": "[D256N]", "effect of a mutation on the interaction": "with no effect"},
      {"variant": "MACTGWTSPLPLCVCLLLTCGFAEAGKLLVVPTDGSHWFTMRSVVEKLILRGHEVVVVMPEVSWQLGRSLNCTVKTYSTSYTLEDLDREFKAFAHAQWKAQVRSIYSLLMGSYNDIFDLFFSNCRSLFKDKKLVEYLKESSFDAVFLDPFDNCGLIVAKYFSLPSVVFARGILCHYLEEGAQCPAPLSYVPRILLGFSDAMTFKERVRNHIMHLEEHLLCHRFFKNALEIASEILQTPVTEYDLYSHTSIWLLRTDFVLDYPKPVMPNMIFIGGINCHQGKPLPMEFEAYINASGEHGIVVFSLGSMVSEIPEKKAMAIADALGKIPQTVLWRYTGTRPSNLANNTILVKWLPQNDLLGHPMTRAFITHAGSHGVYESICNGVPMVMMPLFGDQMDNAKRMETKGAGVTLNVLEMTSEDLENALKAVINDKSYKENIMRLSSLHKDRPVEPLDLAVFWVEFVMRHKGAPHLRPAAHDLTWYQYHSLDVIGFLLAVVLTVAFITFKCCAYGYRKCLGKKGRVKKAHKSKTH", "note": "[M33T]", "effect of a mutation on the interaction": "with no effect"},
      {"variant": "MAYTGWTSPLPLCVCLLLTCGFAEAGKLLVVPMDGSHWFTMRSVVEKLILRGHEVVVVMPEVSWQLGRSLNCTVKTYSTSYTLEDLDREFKAFAHAQWKAQVRSIYSLLMGSYNDIFDLFFSNCRSLFKDKKLVEYLKESSFDAVFLDPFDNCGLIVAKYFSLPSVVFARGILCHYLEEGAQCPAPLSYVPRILLGFSDAMTFKERVRNHIMHLEEHLLCHRFFKNALEIASEILQTPVTEYDLYSHTSIWLLRTDFVLDYPKPVMPNMIFIGGINCHQGKPLPMEFEAYINASGEHGIVVFSLGSMVSEIPEKKAMAIADALGKIPQTVLWRYTGTRPSNLANNTILVKWLPQNDLLGHPMTRAFITHAGSHGVYESICNGVPMVMMPLFGDQMDNAKRMETKGAGVTLNVLEMTSEDLENALKAVINDKSYKENIMRLSSLHKDRPVEPLDLAVFWVEFVMRHKGAPHLRPAAHDLTWYQYHSLDVIGFLLAVVLTVAFITFKCCAYGYRKCLGKKGRVKKAHKSKTH", "note": "[C3Y]", "effect of a mutation on the interaction": "with no effect"}
    ]},
    {"variants_of": "B2", "conditions": "with UGT1A1, P22309-1", "values": [
      {"variant": "MSVKWTSVILLIQLSFCFSSGNCGKVLVWAAEYSHWMNIKTILDELIQRGHEVTVLASSASILFDPNNSSALKIEIYPTSLTKTELENFIMQQIKRWSDLPKDTFWLYFSQVQEIMSIFGDITRKFCKDVVSNKKFMKKVQESRFDVIFADAIFPCSELLAELFNIPFVYSLSFSPGYTFEKHSGGFIFPPSYVPVVMSELTDQMTFMERVKNMIYVLYFDFWFEIFDMKKWDQFYSEVLGRPTTLSETMGKADVWLIRNSWNFQFPYPLLPNVDFVGGLHCKPAKPLPKEMEDFVQSSGENGVVVFSLGSMVSNMTEERANVIASALAQIPQKVLWRFDGNKPDTLGLNTRLYKWIPQNDLLGHPKTRAFITHGGANGIYEAIYHGIPMVGIPLFANQPDNIAHMKARGAAVRVDFNTMSSTDLLNALKRVINDPSYKENVMKLSRIQHDQPVKPLDRAVFWIEFVMRHKGAKHLRVAAHDLTWFQYHSLDVIGFLLVCVATVIFIVTKCCLFCFWKFARKAKKGKND", "note": "[D398N]", "effect of a mutation on the interaction": "with no effect"},
      {"variant": "MSVKWTSVILLIQLSFCFSSGNCGKVLVWAAEYSHWMNIKTILDELIQRGHEVTVLASSASILFDPNNSSSLKIEIYPTSLTKTELENFIMQQIKRWSDLPKDTFWLYFSQVQEIMSIFGDITRKFCKDVVSNKKFMKKVQESRFDVIFADAIFPCSELLAELFNIPFVYSLSFSPGYTFEKHSGGFIFPPSYVPVVMSELTDQMTFMERVKNMIYVLYFDFWFEIFDMKKWDQFYSEVLGRPTTLSETMGKADVWLIRNSWNFQFPYPLLPNVDFVGGLHCKPAKPLPKEMEDFVQSSGENGVVVFSLGSMVSNMTEERANVIASALAQIPQKVLWRFDGNKPDTLGLNTRLYKWIPQNDLLGHPKTRAFITHGGANGIYEAIYHGIPMVGIPLFADQPDNIAHMKARGAAVRVDFNTMSSTDLLNALKRVINDPSYKENVMKLSRIQHDQPVKPLDRAVFWIEFVMRHKGAKHLRVAAHDLTWFQYHSLDVIGFLLVCVATVIFIVTKCCLFCFWKFARKAKKGKND", "note": "[A71S]", "effect of a mutation on the interaction": "with no effect"}
    ]}
  ]
}
